According to patent publication US20240301064A1 (published 2024):
Numbering of substitutions follows the chain as printed.

B1: PMAB274 (antibody, human IgG1, kappa, V domains shown)
VH: EVQLVQSGAEVKKPGASVKVSCKASGYTFTTYYMHWVRQAPGQGLEWMGIINPSGGSTSYAQKFQGRVTMTRDTSTSTVYMELSSLRSEDTAVYYCASGWVYWGQGTLVTVSS
VL: DIQMTQSPSSLSASVGDRVTITCQASRDIKNYLAWYQQKPGKAPKLLIYAASSLQSGVPSRFSGSGSGTDFTLTISSLQPEDFATYYCQQSYSTPPTFGPGTKVDIKR
B2: PMAB275 (antibody, human IgG1, kappa, V domains shown)
VH: B1 VH with T28S, T31S
VL: B1 VL
B3: PMAB277 (antibody, human IgG1, kappa, V domains shown)
VH: B1 VH
VL: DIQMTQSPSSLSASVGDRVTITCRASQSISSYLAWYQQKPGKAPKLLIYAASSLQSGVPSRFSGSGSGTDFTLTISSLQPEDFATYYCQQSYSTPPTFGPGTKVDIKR
B4: PMAB276 (antibody, human IgG1, kappa, V domains shown)
VH: B1 VH with T28S
VL: B1 VL
B5: PMAB278 (antibody, human IgG1, kappa, V domains shown)
VH: B1 VH with T28S, T31S
VL: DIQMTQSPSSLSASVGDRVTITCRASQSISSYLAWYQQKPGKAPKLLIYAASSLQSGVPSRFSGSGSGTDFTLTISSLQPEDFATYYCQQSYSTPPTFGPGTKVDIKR
B6: PMAB178 (bispecific antibody, human IgG1, kappa)
heavy: EVQLLESGGGLVQPGGSLRLSCAASGFTFSSYDMSWVRQAPGKGLEWVSGITGSGGSTYYADSVKGRFTISRDNSKNTLYLQMNSLRAEDTAVYYCARGRGGSGWLDYWGQGTLVTVSSASTKGPSVFPLAPSSKSTSGGTAALGCLVKDYFPEPVTVSWNSGALTSGVHTFPAVLQSSGLYSLSSVVTVPSSSLGTQTYICNVNHKPSNTKVDKKVEPKSCDKTHTCPPCPAPEAAGAPSVFLFPPKPKDTLMISRTPEVTCVVVDVSHEDPEVKFNWYVDGVEVHNAKTKPREEQYNSTYRVVSVLTVLHQDWLNGKEYKCKVSNKALPAPIEKTISKAKGQPREPQVYTLPPSREEMTKNQVSLTCLVKGFYPSDIAVEWESNGQPENNYKTTPPVLDSDGSFFLYSKLTVDKSRWQQGNVFSCSVMHEALHNHYTQKSLSLSPGGGGGSGGGGSGGGGSEVQLLESGGGLVQPGGSLRLSCAASGFTFSDFWMHWVRQAPGKGLEWISYISGDSGYTNYADSVKGRFTISRDNSKNTLYLQMNSLRAEDTAVYYCARDRPYYYYMDVWGKGTTVTVSSGGGGSGGGGSGGGGSGGGGSDIQMTQSPSSLSASVGDRVTITCRASQSVSRSLAWYQQKPGKAPKLLIYAASSLQSGVPSRFSGSGSGTDFTLTISSLQPEDFATYYCQQYKSYPVTFGQGTKVEIK
light: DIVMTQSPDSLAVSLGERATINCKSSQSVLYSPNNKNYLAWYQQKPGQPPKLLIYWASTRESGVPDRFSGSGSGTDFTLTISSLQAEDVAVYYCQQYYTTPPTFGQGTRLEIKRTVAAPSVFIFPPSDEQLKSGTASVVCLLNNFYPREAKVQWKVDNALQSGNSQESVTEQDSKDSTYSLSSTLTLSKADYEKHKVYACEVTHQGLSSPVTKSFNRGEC
B7: PMAB195 (bispecific antibody, human IgG1, kappa)
heavy: B6 heavy with G53I, D494S, F495Y, I511V, D517S, S518G, Y566G, V631I, R633S
light: not shown
B8: PMAB183 (bispecific antibody, human IgG1, kappa)
heavy: B6 heavy with S31N, Y32S, G50A, T52S
light: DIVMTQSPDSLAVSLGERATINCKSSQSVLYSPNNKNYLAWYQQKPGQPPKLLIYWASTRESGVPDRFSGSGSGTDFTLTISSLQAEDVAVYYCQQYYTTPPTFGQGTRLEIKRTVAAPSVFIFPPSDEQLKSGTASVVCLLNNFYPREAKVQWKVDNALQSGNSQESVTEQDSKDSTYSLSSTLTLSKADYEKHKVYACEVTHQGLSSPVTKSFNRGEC
B9: PMAB194 (bispecific antibody, human IgG1, kappa)
heavy: B6 heavy with G53I, D494S, F495Y, I511V, D517S, S518G, Y566G, V631I, R633S
light: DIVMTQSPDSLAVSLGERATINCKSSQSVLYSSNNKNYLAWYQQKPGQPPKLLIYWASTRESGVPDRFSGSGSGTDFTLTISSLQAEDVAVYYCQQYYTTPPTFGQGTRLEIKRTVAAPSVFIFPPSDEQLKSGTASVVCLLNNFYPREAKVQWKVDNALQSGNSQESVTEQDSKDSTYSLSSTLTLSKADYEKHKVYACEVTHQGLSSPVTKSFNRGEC
B10: PMAB198 (bispecific antibody, human IgG1, kappa)
heavy: B6 heavy with G53I, L114D, D494S, F495Y, I511V, D517S, S518G, Y566G, V631I, R633S
light: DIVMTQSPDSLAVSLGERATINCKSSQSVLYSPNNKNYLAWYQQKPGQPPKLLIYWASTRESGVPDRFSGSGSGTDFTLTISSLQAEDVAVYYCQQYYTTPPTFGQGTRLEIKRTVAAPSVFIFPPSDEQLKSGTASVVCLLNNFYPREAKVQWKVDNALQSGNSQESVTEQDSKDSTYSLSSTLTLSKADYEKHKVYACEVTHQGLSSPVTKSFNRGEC
B11: PMAB199 (bispecific antibody, human IgG1, kappa)
heavy: B6 heavy with G53I, L114T, D494S, F495Y, I511V, D517S, S518G, Y566G, V631I, R633S
light: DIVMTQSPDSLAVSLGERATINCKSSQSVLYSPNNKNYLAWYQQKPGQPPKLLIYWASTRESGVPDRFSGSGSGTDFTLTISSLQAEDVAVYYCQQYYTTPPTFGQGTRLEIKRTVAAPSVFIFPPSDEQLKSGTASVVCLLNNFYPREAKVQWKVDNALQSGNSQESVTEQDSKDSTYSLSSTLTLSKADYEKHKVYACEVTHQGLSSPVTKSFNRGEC
B12: PMAB217 (bispecific antibody, human IgG1, kappa)
heavy: QVQLVQSGAEVKKPGASVKVSCKASGYTFSDHYMHWVRQAPGQGLEWMGTIAPSGGRTSYAQKFQGRVTMTRDTSTSTVYMELSSLRSEDTAVYYCAADNGHASGWLYYYGMDVWGQGTTVTVSSASTKGPSVFPLAPSSKSTSGGTAALGCLVKDYFPEPVTVSWNSGALTSGVHTFPAVLQSSGLYSLSSVVTVPSSSLGTQTYICNVNHKPSNTKVDKKVEPKSCDKTHTCPPCPAPEAAGAPSVFLFPPKPKDTLMISRTPEVTCVVVDVSHEDPEVKFNWYVDGVEVHNAKTKPREEQYNSTYRVVSVLTVLHQDWLNGKEYKCKVSNKALPAPIEKTISKAKGQPREPQVYTLPPSREEMTKNQVSLTCLVKGFYPSDIAVEWESNGQPENNYKTTPPVLDSDGSFFLYSKLTVDKSRWQQGNVFSCSVMHEALHNHYTQKSLSLSPGGGGGSGGGGSGGGGSEVQLLESGGGLVQPGGSLRLSCAASGFTFSDFWMHWVRQAPGKGLEWISYISGDSGYTNYADSVKGRFTISRDNSKNTLYLQMNSLRAEDTAVYYCARDRPYYYYMDVWGKGTTVTVSSGGGGSGGGGSGGGGSGGGGSDIQMTQSPSSLSASVGDRVTITCRASQSVSRSLAWYQQKPGKAPKLLIYAASSLQSGVPSRFSGSGSGTDFTLTISSLQPEDFATYYCQQYKSYPVTFGQGTKVEIK
light: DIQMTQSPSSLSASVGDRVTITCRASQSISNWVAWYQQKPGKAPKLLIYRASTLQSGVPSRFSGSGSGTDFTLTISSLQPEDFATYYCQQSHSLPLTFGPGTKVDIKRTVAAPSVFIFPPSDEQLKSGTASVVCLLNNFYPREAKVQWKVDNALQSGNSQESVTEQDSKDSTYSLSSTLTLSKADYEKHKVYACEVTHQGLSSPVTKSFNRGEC
B13: PMAB214 (bispecific antibody, human IgG1, kappa)
heavy: B12 heavy
light: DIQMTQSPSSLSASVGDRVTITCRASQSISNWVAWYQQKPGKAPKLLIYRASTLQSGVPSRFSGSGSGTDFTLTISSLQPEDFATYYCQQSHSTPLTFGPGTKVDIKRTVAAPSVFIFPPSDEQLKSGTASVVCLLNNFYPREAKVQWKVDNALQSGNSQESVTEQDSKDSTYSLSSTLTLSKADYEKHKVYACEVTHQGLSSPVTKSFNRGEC
B14: PMAB208 (bispecific antibody, human IgG1, kappa)
heavy: B12 heavy
light: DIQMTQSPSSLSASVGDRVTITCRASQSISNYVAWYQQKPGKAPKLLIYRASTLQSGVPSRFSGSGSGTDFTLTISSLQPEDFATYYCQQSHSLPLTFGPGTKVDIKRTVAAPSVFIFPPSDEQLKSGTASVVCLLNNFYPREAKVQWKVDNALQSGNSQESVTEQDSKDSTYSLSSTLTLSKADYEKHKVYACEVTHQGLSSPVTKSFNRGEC
B15: PMAB202 (bispecific antibody, human IgG1, kappa)
heavy: B12 heavy with D31S
light: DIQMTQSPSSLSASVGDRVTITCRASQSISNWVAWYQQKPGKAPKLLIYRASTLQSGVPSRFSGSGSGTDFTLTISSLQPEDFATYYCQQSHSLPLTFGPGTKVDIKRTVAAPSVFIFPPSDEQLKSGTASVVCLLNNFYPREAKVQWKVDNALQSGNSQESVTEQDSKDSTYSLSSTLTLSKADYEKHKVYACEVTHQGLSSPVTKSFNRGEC
B16: PMAB211 (bispecific antibody, human IgG1, kappa)
heavy: B12 heavy
light: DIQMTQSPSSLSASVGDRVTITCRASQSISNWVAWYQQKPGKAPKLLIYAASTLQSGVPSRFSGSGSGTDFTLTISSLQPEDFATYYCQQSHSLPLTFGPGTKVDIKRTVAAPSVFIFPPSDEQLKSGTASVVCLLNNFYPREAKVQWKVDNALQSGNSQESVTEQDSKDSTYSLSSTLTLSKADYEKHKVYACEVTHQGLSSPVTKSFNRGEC
B17: PMAB207 (bispecific antibody, human IgG1, kappa)
heavy: B12 heavy
light: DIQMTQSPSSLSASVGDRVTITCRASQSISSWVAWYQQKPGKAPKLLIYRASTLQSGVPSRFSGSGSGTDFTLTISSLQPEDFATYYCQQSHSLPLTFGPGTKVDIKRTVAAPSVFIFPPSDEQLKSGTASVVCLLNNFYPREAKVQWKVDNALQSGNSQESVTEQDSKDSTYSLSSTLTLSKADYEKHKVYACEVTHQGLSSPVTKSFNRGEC
B18: PMAB209 (bispecific antibody, human IgG1, kappa)
heavy: B12 heavy
light: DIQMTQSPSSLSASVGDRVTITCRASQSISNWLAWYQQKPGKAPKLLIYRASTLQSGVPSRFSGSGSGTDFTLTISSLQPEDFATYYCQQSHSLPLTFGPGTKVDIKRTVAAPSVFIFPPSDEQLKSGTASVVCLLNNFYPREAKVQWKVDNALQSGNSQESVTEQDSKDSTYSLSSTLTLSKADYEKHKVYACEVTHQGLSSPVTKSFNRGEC
B19: PMAB205 (bispecific antibody, human IgG1, kappa)
heavy: B12 heavy with R57S
light: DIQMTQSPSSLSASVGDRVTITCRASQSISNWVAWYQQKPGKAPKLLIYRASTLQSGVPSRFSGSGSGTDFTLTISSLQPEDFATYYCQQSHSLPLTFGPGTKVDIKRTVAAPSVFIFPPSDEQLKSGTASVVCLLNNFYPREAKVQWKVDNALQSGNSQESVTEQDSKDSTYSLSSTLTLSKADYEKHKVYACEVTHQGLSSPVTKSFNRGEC
B20: PMAB201 (bispecific antibody, human IgG1, kappa)
heavy: B12 heavy with S30T
light: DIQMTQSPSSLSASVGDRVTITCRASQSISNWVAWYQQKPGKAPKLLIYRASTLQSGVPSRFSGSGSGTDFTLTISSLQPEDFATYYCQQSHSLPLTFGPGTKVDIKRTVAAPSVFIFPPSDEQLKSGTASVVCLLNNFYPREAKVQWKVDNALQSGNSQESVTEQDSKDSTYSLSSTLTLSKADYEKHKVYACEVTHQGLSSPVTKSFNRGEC
B21: PMAB204 (bispecific antibody, human IgG1, kappa)
heavy: B12 heavy with T50I
light: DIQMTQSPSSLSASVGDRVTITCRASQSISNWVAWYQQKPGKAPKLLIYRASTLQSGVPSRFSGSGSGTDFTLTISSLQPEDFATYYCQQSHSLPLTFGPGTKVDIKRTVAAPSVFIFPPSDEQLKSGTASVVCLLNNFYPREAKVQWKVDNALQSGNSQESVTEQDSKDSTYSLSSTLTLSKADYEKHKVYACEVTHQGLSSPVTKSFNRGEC
B22: PMAB212 (bispecific antibody, human IgG1, kappa)
heavy: B12 heavy
light: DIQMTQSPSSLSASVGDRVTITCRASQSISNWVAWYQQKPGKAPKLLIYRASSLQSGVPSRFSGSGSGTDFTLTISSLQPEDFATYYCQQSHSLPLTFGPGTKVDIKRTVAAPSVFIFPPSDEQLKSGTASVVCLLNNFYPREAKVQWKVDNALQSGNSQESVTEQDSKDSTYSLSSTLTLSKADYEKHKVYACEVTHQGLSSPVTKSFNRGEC
B23: PMAB210 (bispecific antibody, human IgG1, kappa)
heavy: B12 heavy
light: not shown
B24: PMAB213 (bispecific antibody, human IgG1, kappa)
heavy: B12 heavy
light: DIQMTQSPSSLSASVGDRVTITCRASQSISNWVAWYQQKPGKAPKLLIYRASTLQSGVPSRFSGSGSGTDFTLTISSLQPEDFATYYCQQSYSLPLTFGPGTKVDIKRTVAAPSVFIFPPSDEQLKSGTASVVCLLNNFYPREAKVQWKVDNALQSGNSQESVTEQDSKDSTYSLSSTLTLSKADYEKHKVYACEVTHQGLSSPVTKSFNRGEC
B25: PMAB119 (bispecific antibody, human IgG1, kappa)
heavy: QVQLVQSGAEVKKPGASVKVSCKASGYSFTTYYMHWVRQAPGQGLEWMGIIAPSGGSTSYAQKFQGRVTMTRDTSTSTVYMELSSLRSEDTAVYYCASGWVYWGQGTLVTVSSASTKGPSVFPLAPSSKSTSGGTAALGCLVKDYFPEPVTVSWNSGALTSGVHTFPAVLQSSGLYSLSSVVTVPSSSLGTQTYICNVNHKPSNTKVDKKVEPKSCDKTHTCPPCPAPEAAGAPSVFLFPPKPKDTLMISRTPEVTCVVVDVSHEDPEVKFNWYVDGVEVHNAKTKPREEQYNSTYRVVSVLTVLHQDWLNGKEYKCKVSNKALPAPIEKTISKAKGQPREPQVYTLPPSREEMTKNQVSLTCLVKGFYPSDIAVEWESNGQPENNYKTTPPVLDSDGSFFLYSKLTVDKSRWQQGNVFSCSVMHEALHNHYTQKSLSLSPGGGGGSGGGGSGGGGSEVQLLESGGGLVQPGGSLRLSCAASGFTFSDFWMHWVRQAPGKGLEWISYISGDSGYTNYADSVKGRFTISRDNSKNTLYLQMNSLRAEDTAVYYCARDRPYYYYMDVWGKGTTVTVSSGGGGSGGGGSGGGGSGGGGSDIQMTQSPSSLSASVGDRVTITCRASQSVSRSLAWYQQKPGKAPKLLIYAASSLQSGVPSRFSGSGSGTDFTLTISSLQPEDFATYYCQQYKSYPVTFGQGTKVEIK
light: not shown
B26: PMAB113 (bispecific antibody, human IgG1, kappa)
heavy: B25 heavy
light: not shown
B27: PMAB109 (bispecific antibody, human IgG1, kappa)
heavy: B25 heavy with T31S
light: not shown
B28: PMAB114 (bispecific antibody, human IgG1, kappa)
heavy: B25 heavy
light: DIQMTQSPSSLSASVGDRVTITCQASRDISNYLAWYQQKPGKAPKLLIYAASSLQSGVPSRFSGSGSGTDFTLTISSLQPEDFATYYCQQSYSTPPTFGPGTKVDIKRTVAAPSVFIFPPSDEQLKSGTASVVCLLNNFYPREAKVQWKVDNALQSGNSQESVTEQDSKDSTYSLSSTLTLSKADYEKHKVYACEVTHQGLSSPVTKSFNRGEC
B29: PMAB115 (bispecific antibody, human IgG1, kappa)
heavy: B25 heavy
light: not shown
B30: PMAB108 (bispecific antibody, human IgG1, kappa)
heavy: B25 heavy with S28T
light: not shown
B31: PMAB111 (bispecific antibody, human IgG1, kappa)
heavy: B25 heavy
light: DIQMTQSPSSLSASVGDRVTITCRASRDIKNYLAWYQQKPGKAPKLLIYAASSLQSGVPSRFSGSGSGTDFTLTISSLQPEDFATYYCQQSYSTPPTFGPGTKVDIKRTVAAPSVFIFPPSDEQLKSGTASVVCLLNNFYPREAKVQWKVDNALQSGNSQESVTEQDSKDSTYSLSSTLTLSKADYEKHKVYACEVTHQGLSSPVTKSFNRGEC
B32: PMAB112 (bispecific antibody, human IgG1, kappa)
heavy: B25 heavy
light: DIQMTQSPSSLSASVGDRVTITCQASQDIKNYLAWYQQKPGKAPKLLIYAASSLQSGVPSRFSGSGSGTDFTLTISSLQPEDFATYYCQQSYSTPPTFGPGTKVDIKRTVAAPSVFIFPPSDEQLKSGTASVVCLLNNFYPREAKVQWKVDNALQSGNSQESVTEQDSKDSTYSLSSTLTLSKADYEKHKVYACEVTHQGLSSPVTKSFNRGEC
B33: PMAB233 (antibody, human IgG1, kappa, V domains shown)
VH: B1 VH with E1Q, N52Q
VL: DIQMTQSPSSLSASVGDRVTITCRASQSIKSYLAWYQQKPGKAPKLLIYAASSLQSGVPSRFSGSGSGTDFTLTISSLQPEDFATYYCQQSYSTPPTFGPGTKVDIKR

Biological target: T1, human PD-1 (human, UniProt Q15116 25-167, limits assumed)
T1 construct: also called huPD-1
T1 sequence (Q15116 25-167 limits assumed): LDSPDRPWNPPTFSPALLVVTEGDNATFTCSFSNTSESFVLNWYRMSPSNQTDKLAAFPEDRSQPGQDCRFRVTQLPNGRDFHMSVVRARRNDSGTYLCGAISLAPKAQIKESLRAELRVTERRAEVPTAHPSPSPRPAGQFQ
Assay: BLI, antibody on AHC tip, soluble PD-1

In order of rising Kd:
1. B30  55.3 nM
2. B31  67.6 nM
3. B32  76.2 nM
4. B27  85.9 nM
5. B26  91.7 nM
6. B25  96.9 nM
7. B11  98.6 nM
8. B10  104 nM
9. B28  113 nM
10. B29  229 nM
11. B20  341 nM
12. B12  424 nM
13. B17  445 nM
14. B14  553 nM
15. B9  577 nM
16. B7  651 nM
17. B18  687 nM
18. B15  755 nM
19. B19  795 nM
20. B2  849 nM
21. B5  892 nM
22. B3  896 nM
23. B4  985 nM
24. B22  1090 nM
25. B6  1300 nM
26. B16  1300 nM
27. B24  1430 nM
28. B21  1710 nM
29. B1  1790 nM
30. B23  3130 nM
31. B13  8050 nM
32. B8  11300 nM

Biological target: T1, human PD-1
Assay: ELISA on coated huPD-1
Protocol: Plates were coated with 2 μg/mL huPD-1 in 1×PBS at 4° C. overnight. Plates were blocked with 1×PBS with 1% BSA. Antibodies were tested in duplicate for binding with a 3-fold, dilution series from 300 nM to 0.4 nM. Signal is background subtracted for coated wells with 2° antibody only. […] PD-1 agonists comprising germline mutations bind to human PD-1.

B33 gave an IC50 of 85.9 nM.
